From patent US20240255509A1, “COMPOSITIONS AND METHODS RELATED TO K180 DIMETHYLATED H1.0 PROTEIN” (Aelan Cell Technologies, Inc., priority 2016, published 2024) come the findings set out here.

What all share (assay): In vitro methylation with GLP, products identified by LC-MS
Common to all, as to type: biochemical

Test [1] concerns the target T1, unmodified H1.0 peptide ([…] (SEQ ID NO:42)) (Homo sapiens, UniProt P07305).
T1 construct: purchased ThermoFisher Scientific (peptide); NEB (G9A) M0235S (G9A)
The settings on record: 10 U enzyme, 3.2 mM S-Adenosyl-L-Methionine, 37° C. 1 hour, spectral counts. How it is done:
(§1) In order to identify the precise sites of methylation by G9A and GLP methyltransferases on histone H1.0, in vitro methylation assays were performed and subsequently analyzed by Liquid Chromatography and High-resolution Mass Spectrometry (LC-MS) analysis. Methylation reactions were set up using either G9A methyltransferase (NEB, M0235S, Lot #0031201) or GLP methyltransferase (Cayman Chemical, 10755). The methyl donor in each reaction was unlabeled S-Adenosyl-L-Methionine (NEB, B9003S). […]
(§2) For the Liquid Chromatography and High-resolution Mass Spectrometry (LC-MS) analysis, samples were prepared as described above and about 1 μg o the product was injected onto a Thermo Scientific Easy nLC system configured with a 10 cm×100 um trap column and a 25 cm×100 um ID resolving column. […] This ensured optimal full-scan data for quantification. […]
(§3) Protein identification was performed using Thermo Scientific Proteome Discoverer version 1.4 (including Sequest and Percolator algorithms) using RefSeqHuman sequence database. […] Protein quantification was performed using Pinpoint version 1.4 software. The Pinpoint quantification workflow included importing the Proteome Discoverer .msf files as spectral libraries. Identified peptides were subsequently quantified in MS .raw files using the Pinpoint peak finding, chromatographic alignment and area calculation algorithms. […]

For test [2], the target named is T2, K180 dimethylated H1.0 peptide (SEQ ID NO:3) (Homo sapiens, UniProt P07305).
T2 construct: purchased ThermoFisher Scientific (peptide); Cayman Chemical (GLP) 10755 (GLP)
The settings on record: K180 dimethylated peptide as substrate. How it is done: as §1, §2, §3

Test [3] deals with T3, recombinant human H1.0 protein (Homo sapiens, UniProt P07305).
T3 construct: full-length recombinant human H1.0 (NEB, M2501S); purchased NEB M2501S (H1.0); M0235S (G9A)
As to conditions: 1 μg full-length protein. How it is done:
as §1, §2, §3

B1: GLP: recombinant G9A-like protein (GLP) methyltransferase (Cayman Chemical, 10755) (protein, UniProt Q9H9B1 2-1298, looked up)
Histone-lysine …: AAADAEAVPARGEPQQDCCVKTELLGEETPMAADEGSAEKQAGEAHMAADGETNGSCENSDASSHANAAKHTQDSARVNPQDGTNTLTRIAENGVSERDSEAAKQNHVTADDFVQTSVIGSNGYILNKPALQAQPLRTTSTLASSLPGHAAKTLPGGAGKGRTPSAFPQTPAAPPATLGEGSADTEDRKLPAPGADVKVHRARKTMPKSVVGLHAASKDPREVREARDHKEPKEEINKNISDFGRQQLLPPFPSLHQSLPQNQCYMATTKSQTACLPFVLAAAVSRKKKRRMGTYSLVPKKKTKVLKQRTVIEMFKSITHSTVGSKGEKDLGASSLHVNGESLEMDSDEDDSEELEEDDGHGAEQAAAFPTEDSRTSKESMSEADRAQKMDGESEEEQESVDTGEEEEGGDESDLSSESSIKKKFLKRKGKTDSPWIKPARKRRRRSRKKPSGALGSESYKSSAGSAEQTAPGDSTGYMEVSLDSLDLRVKGILSSQAEGLANGPDVLETDGLQEVPLCSCRMETPKSREITTLANNQCMATESVDHELGRCTNSVVKYELMRPSNKAPLLVLCEDHRGRMVKHQCCPGCGYFCTAGNFMECQPESSISHRFHKDCASRVNNASYCPHCGEESSKAKEVTIAKADTTSTVTPVPGQEKGSALEGRADTTTGSAAGPPLSEDDKLQGAASHVPEGFDPTGPAGLGRPTPGLSQGPGKETLESALIALDSEKPKKLRFHPKQLYFSARQGELQKVLLMLVDGIDPNFKMEHQNKRSPLHAAAEAGHVDICHMLVQAGANIDTCSEDQRTPLMEAAENNHLEAVKYLIKAGALVDPKDAEGSTCLHLAAKKGHYEVVQYLLSNGQMDVNCQDDGGWTPMIWATEYKHVDLVKLLLSKGSDINIRDNEENICLHWAAFSGCVDIAEILLAAKCDLHAVNIHGDSPLHIAARENRYDCVVLFLSRDSDVTLKNKEGETPLQCASLNSQVWSALQMSKALQDSAPDRPSPVERIVSRDIARGYERIPIPCVNAVDSEPCPSNYKYVSQNCVTSPMNIDRNITHLQYCVCIDDCSSSNCMCGQLSMRCWYDKDGRLLPEFNMAEPPLIFECNHACSCWRNCRNRVVQNGLRARLQLYRTRDMGWGVRSLQDIPPGTFVCEYVGELISDSEADVREEDSYLFDLDNKDGEVYCIDARFYGNVSRFINHHCEPNLVPVRVFMAHQDLRFPRIAFFSTRLIEAGEQLGFDYGERFWDIKGKLFSCRCGSPKCRHSSAALAQRQASAAQEAQEDGLPDTSSAAAADPL
Regarding B1, in test [1], the “peptides dimethylated at H1.0K180, % of all peptides” value is on record as 96.6%. In addition, the “peptides further methylated (H1.0K180 and H1.0K174), % of peptides” value in test [2] is 1.02%. Besides, the “sites of methylation on full-length H1.0” value in test [3] is reported as “methylates a large number of lysine residues on the C-terminal tail of H1.0, lacking the specificity of G9A”.
